Three compounds from US20080166749A1, “Fluorescent Protein Sensors of Post-Translational Modifications” (INVITROGEN CORPORATION, priority 1998, published 2008) can be followed below.

Where no end group is shown, it is not given here.

What all share (type): biochemical
The target of assay [1] is PKA (Mus musculus, UniProt P05132). Nature of the assay: GFP mutant K8 quenching assay with protein kinase A inhibitors. The following applies: 1 mM versus 0.1 mM ATP. Here is the method:
The protein kinase A inhibitors PKI (protein kinase A heat-stable inhibitor, isoform alpha (Calbiochem #539488) and H-89 (N-[2-((p-bromocinnamyl)amino)ethyl]-5-isoquinoline sulfonamide, HCl) (Calbiochem #371963) were tested in the preferred assay condition to determine if they could be detected using the GFP mutant K8 quenching assay. Both compounds were tested individually (between 0.1 and 1,000 nM) and pre-incubated with PKA in the absence of mutant K8 for 10 minutes at 4° C. Then, GFP mutant K8 was added to a final concentration of 4 μM and the mixtures were incubated for thirty minutes at 30° C. The kinase reactions were terminated by the addition of the preferred acetate quenching conditions (100 mM acetate, 100 mM NaCl, pH 5.0, 25 mM beta-glycerol phosphate). The fluorescence of these samples was measured 14 to 16 hours later. The results of these studies establish that the GFP mutant K8 quenching assay can be used to detect kinase inhibitors and further validates the methodology for drug screening.
The protein kinase A inhibitor H-89 was tested in the GFP mutant K8 kinase assay at two different ATP concentrations (0.1 mM and 1 mM). […] Because the GFP kinase assay can be performed at both high and low ATP concentrations, this method can be used to identify, measure, and detect ATP antagonists. […]

Assay [2] addresses PKC alpha (Homo sapiens, UniProt P17252). The assay can be described thus: Rate of phosphorylation of GFP PKC substrates, ^32P incorporation. The following applies: 5 micromolar GFP mutant, 0.2 μg PKC isoform, 30 minutes at 30° C. Here is the method: (§1) The rates of phosphorylation of GFP having PKC motifs were determined by measuring ^32P incorporation in the presence of different PKC isoforms (Table XIII). These examples include one example where a membrane association motif is part of the GFP mutant.
(§2) These experiments were performed by incubating the indicated GFP mutant (5 micromolar) with the indicated PKC isoform (0.2 μg) for 30 minutes at 30° C. in 25 mM TRIS pH 7.5, 1 mM DTT, 10 mM MgCl2 0.1 mM ATP 20 μg/ml phosphatidylserine, 10 μM OAG, 200 μM CaCl2 (for PKCα) and 1 mM EGTA (for PKCs ε and ζ). […] The relative specificities identified for the GFP substrates in this experiment broadly matched those identified by Nishikawa et al (1997) who used non-GFP peptides to selectively measure PCK isoform activity. […] Membrane association motif poly-Lys (hepta-Lys) was added to the C-terminus of GFP mutant K8 with PKC alpha phosphorylation motif at the N-terminus.

In assay [3] the target is T1, PKC ε (Homo sapiens, UniProt Q02156).
T1 sequence (Q02156 1-737): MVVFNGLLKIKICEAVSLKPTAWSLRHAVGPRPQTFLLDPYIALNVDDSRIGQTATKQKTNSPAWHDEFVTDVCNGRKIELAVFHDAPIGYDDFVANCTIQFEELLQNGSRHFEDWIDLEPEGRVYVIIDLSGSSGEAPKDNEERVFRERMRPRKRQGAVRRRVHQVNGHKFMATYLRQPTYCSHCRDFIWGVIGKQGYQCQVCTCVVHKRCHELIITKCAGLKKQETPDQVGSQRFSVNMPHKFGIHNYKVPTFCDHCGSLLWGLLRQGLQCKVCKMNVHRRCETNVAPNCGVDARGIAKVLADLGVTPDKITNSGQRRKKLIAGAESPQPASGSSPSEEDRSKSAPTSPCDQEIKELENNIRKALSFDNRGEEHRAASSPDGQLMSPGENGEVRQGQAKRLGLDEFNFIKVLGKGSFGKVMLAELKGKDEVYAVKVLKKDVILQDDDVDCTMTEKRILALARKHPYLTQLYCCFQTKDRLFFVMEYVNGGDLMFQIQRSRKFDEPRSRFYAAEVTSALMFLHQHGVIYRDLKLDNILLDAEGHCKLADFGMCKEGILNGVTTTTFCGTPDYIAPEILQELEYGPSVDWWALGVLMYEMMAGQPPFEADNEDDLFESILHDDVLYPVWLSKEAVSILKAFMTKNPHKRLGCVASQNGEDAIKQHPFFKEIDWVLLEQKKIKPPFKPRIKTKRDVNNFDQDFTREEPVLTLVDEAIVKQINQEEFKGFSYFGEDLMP
The assay is described as above. The following applies: 5 micromolar GFP mutant, 0.2 μg PKC isoform, 30 minutes at 30° C. The method, then: as §1, §2

Assay [4] deals with T2, PKC ζ (Homo sapiens, UniProt Q05513).
T2 sequence (Q05513 1-592): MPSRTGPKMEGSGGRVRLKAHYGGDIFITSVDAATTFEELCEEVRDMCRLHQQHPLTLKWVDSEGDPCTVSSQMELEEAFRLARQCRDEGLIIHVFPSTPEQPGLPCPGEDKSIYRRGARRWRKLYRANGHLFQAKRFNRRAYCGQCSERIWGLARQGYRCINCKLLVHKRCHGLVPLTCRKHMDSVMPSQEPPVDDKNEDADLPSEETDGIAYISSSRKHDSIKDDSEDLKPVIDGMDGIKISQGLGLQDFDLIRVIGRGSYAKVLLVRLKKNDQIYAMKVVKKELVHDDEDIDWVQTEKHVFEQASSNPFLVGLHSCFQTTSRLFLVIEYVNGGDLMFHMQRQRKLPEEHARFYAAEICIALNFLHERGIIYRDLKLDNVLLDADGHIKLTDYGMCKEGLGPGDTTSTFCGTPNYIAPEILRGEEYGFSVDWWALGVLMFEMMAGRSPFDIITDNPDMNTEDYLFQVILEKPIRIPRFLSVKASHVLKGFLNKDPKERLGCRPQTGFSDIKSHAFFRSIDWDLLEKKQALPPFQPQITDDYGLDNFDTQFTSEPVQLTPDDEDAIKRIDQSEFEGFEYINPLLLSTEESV
Described as above. The following applies: 5 micromolar GFP mutant, 0.2 μg PKC isoform, 30 minutes at 30° C. Here is the method: as §1, §2

With `Cl.O=S(=O)(NCCNCC=Cc1ccc(Br)cc1)c1cccc2cnccc12` [H-89, N-[2-((p-bromocinnamyl)amino)ethyl]-5-isoquinoline sulfonamide, HCl], the “inhibition of kinase activity at the higher ATP concentration” value in assay [1] is given as “much less efficient at inhibiting kinase activity”.

As for “Pkc 7: GFP mutant K8 with PKC ζ motif Arg Arg Phe Lys Arg GIn Gly Ser Phe Phe (RRFKRQGSFF; not fully specified; printed as Arg Arg Phe Lys Arg GIn Gly Ser Phe Phe)”, the “Kinase and Activity (CPM), PKC alpha” value in assay [2] was 4,745 CPM. The “Kinase and Activity (CPM), PKC ε” value in assay [3] is reported as 12,688 CPM. The “Kinase and Activity (CPM), PKC ζ” value in assay [4] is listed as 8,421 CPM.

In the case of “Pkc 8: GFP mutant K8 with PKC μ motif Ala Ala Leu Val Arg GIn Met Ser Val Ala (AALVRQMSVA; not fully specified; printed as Ala Ala Leu Val Arg GIn Met Ser Val Ala)”, the “Kinase and Activity (CPM), PKC alpha” value in assay [2] stood at 5.230 CPM. The “Kinase and Activity (CPM), PKC ε” value in assay [3] is listed as 20,259 CPM. For the same compound, the “Kinase and Activity (CPM), PKC ζ” value in assay [4] is recorded as 14,606 CPM.
